Measurements: patent US20130084301A1 (published 2013)
Where a chain is given by its changes, count along the chain named.

B1: HC-84.22 (antibody, V domains shown)
VH: EVQLVQSGAEVKKPGSSVKVSCKASGDTFSSYSIHWVRQAPGQGLEWMGRIIPIVGLVDYAQMFQGRVTISADRSTNTVYMDLSNLRSEDTAIYYCARSLGCPNGVCHGPRAADYFDYWGQGTLVTVSS
VL: EMTLTQSPSSLSASVGDRVTITCRASQSISSWLAWYQQKPGKAPKLLIYDASNLETGVPSRFSGSGSGTDFTFTISSLQPEDIATYYCQQYDNLPRTFGQGTKVDIKR
B2: HC-84.23 (antibody, V domains shown)
VH: B1 VH with E1Q, Q6E, I93Y, Y95C, C96A, A97R, R98A
VL: EIVLTQSPGTVSLFPGDRVTLSCRASQRVPSSSLAWYQQKPGQAPRLLLYGASSRATGIPDRFSGRGSGTDFALSISRLEPEDFAVYYCQQYGSSLITFGQGTRLEIKR
notes: also called HC-23
B3: HC-84.20 (antibody, V domains shown)
VH: QVQLVQSGSEVKKPGSSVKVSCKASGGTFNIYTVNWVRQAPGQGLEWMGRIIPMLGSADYAQRFQGRVTISADKSTSTAYMELRNLKSEDTAVYYCARSLPREMFFRDDAFDIWGQGTMVTVSS
VL: ETTLTQSPGTLSLSPGERATLSCRASQSVSSNLAWYQQKPGQAPRLLIYGASTRATGIPDRFSGSGSGTDFTLTISRLEPDDFVVYYCQQYGSSPVTFGQGTRLEIKR
B4: HC-84.21 (antibody, V domains shown)
VH: QVQLVQSGAEVKKPGSSVKVSCKASGTSFNRYTFAWVRQAPGQGLEWVGTIIPIVGLTNYAEKFQGRVSITADKSTSTTYMELSSLRSEDTAVYFCARKVEFWLGEIAPNKFDVFDLWGQGTMVTVSS
VL: EIVLTQSPDSLAVSLGERATIHCKSSQSIFFSSNSKDYLAWYQQKPGQPPKLLIYWASTRDSGVPDRFSGSGSGTDFTLTITGLQADDAAVYYCQQFDTPQITFGGGTKLEIKR
notes: also called CBH-84.21
B5: HC-84.24 (antibody, V domains shown)
VH: QVQLVQSGAEVKKPGSSVKVSCKASGGTFSLNSLSWVRQAPGQGLEWMGTIIPIVGIANYAQKFQGRVTITADKSTGTAYMDLSSLSDDTAVYFCARELYSGTGFFRLEALDYWGQGTLVTVSS
VL: DIQMTQSPATLSLSPGERATLSCRASQSVSSYLAWYQQKPGQAPRLLIYDASNRATGIPARFIAGGSGTDFTLTISSLEPEDFAVYYCQQYGSPQTFGQGTKLEIKR

Assays:
[1] = molecular target: HCV 1a E2 with alanine substitution at 428 (hepatitis C virus genotype 1a, H77c, UniProt P27958 384-746); experiment: alanine-substitution ELISA, antibody 2 ug/ml
[2] = molecular target: HCV 1a E2 with alanine substitution at 420 (hepatitis C virus genotype 1a, H77c, UniProt P27958 384-746); experiment: alanine-substitution ELISA, antibody 2 ug/ml
[3] = molecular target: HCV 1a E2 with alanine substitution at 437 (hepatitis C virus genotype 1a, H77c, UniProt P27958 384-746); experiment: alanine-substitution ELISA, antibody 2 ug/ml
[4] = molecular target: T1, HCV 1a E2 with alanine substitution at 441 (hepatitis C virus genotype 1a, H77c, UniProt P27958 384-746); experiment: alanine-substitution ELISA, antibody 2 ug/ml
[5] = molecular target: T2, HCV 1a E2 with alanine substitution at 443 (hepatitis C virus genotype 1a, H77c, UniProt P27958 384-746); experiment: alanine-substitution ELISA
[6] = molecular target: T3, HCV 1a E2 with alanine substitution at 429 (hepatitis C virus genotype 1a, H77c, UniProt P27958 384-746); experiment: alanine-substitution ELISA
[7] = molecular target: HCV 1a E2 with alanine substitution at 616 (hepatitis C virus genotype 1a, H77c, UniProt P27958 384-746); experiment: alanine-substitution ELISA
[8] = molecular target: T4, HCV 1a E2 with alanine substitution at 442 (hepatitis C virus genotype 1a, H77c, UniProt P27958 384-746); experiment: alanine-substitution ELISA
[9] = molecular target: HCV 1a E2 with alanine substitution at 613 (hepatitis C virus genotype 1a, H77c, UniProt P27958 384-746); experiment: alanine-substitution ELISA, antibody 2 ug/ml
[10] = molecular target: T2, HCV 1a E2 with alanine substitution at …; experiment: alanine-substitution ELISA, antibody 2 ug/ml
[11] = molecular target: T4, HCV 1a E2 with alanine substitution at …; experiment: alanine-substitution ELISA, antibody 2 ug/ml
[12] = molecular target: T2, HCV 1a E2 with alanine substitution at …; experiment: alanine-substitution ELISA; row marked *: tested at 0.2 ug/ml
[13] = molecular target: T3, HCV 1a E2 with alanine substitution at …; experiment: as above
[14] = molecular target: T4, HCV 1a E2 with alanine substitution at …; experiment: as above
[15] = molecular target: T1, HCV 1a E2 with alanine substitution at …; experiment: as above
[16] = molecular target: T3, HCV 1a E2 with alanine substitution at …; experiment: alanine-substitution ELISA, antibody 2 ug/ml

| Binder | % of binding to wt E2 [1] [%] | % of binding to wt E2 [2] [%] | % of binding to wt E2 [3] [%] | % of binding to wt E2 [4] [%] | binding result [6] | binding result [7] | % of binding to wt E2 [10] [%] | % of binding to wt E2 [11] [%] | also measured |
| --- | --- | --- | --- | --- | --- | --- | --- | --- | --- |
| B1 | 19 | 18 | 8 | 2 | no binding (tested: 2 ug/ml) | no binding (tested: 2 ug/ml) |  |  | binding result [5]: no binding (tested: 2 ug/ml); binding result [8]: no binding (tested: 2 ug/ml) |
| B2 | 20 | 20 | 15 | 2 |  |  |  |  |  |
| B3 |  |  |  | 6 | no binding (tested: 2 ug/ml) | no binding (tested: 2 ug/ml) | 26 | 26 | % of binding to wt E2 [9]: 20% |
| B4 |  |  |  |  |  |  |  |  | % of binding to wt E2 [12]: 35%; % of binding to wt E2 [13]: 15%; % of binding to wt E2 [14]: 20%; % of binding to wt E2 [15]: 28% |
| B5 |  |  |  |  |  |  | 1 | 14 | % of binding to wt E2 [16]: 1% |
